Results: article PMC9482650, “Quantitative fragmentomics allow affinity mapping of interactomes” (Nature Communications, 2022)

T1: LNX2_3, Q8N448
T1 sequence (Q8N448 463-564, limits assumed, looked up): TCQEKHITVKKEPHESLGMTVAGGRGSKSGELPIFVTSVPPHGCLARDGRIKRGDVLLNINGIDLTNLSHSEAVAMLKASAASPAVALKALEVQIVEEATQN

T2: FRMPD1, Q5SYB0
T2 sequence (Q5SYB0 52-145, limits assumed, looked up): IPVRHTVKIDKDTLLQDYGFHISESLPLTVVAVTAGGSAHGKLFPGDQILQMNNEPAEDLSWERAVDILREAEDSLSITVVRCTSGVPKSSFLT

T3: RADIL, Q96JH8
T3 sequence (Q96JH8 971-1071, limits assumed, looked up): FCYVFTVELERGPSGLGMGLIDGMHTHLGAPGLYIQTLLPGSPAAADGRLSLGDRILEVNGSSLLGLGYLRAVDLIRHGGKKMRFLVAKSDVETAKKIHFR

T4: PDZRN3_1, Q9UPQ7
T4 sequence (Q9UPQ7 244-349, limits assumed, looked up): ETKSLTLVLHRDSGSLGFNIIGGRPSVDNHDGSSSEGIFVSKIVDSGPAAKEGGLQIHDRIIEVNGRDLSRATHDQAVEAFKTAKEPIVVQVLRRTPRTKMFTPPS

T5: LIN7A, O14910
T5 sequence (O14910 103-200, limits assumed, looked up): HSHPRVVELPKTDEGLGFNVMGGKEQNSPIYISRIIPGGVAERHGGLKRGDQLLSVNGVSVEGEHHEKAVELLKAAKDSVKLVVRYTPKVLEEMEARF

T6: PARD3B_1, Q8TEW8
T6 sequence (Q8TEW8 196-299, limits assumed, looked up): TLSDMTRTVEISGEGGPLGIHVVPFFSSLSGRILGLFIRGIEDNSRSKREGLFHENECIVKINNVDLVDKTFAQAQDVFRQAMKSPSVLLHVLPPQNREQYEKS

T7: ARHGAP21, Q5T5U3
T7 sequence (Q5T5U3 45-169, limits assumed, looked up): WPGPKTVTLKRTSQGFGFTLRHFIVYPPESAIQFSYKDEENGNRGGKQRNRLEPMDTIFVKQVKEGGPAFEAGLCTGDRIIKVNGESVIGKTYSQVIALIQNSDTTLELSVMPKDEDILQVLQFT

T8: CARD11, Q9BXL7
T8 sequence (Q9BXL7 662-765, limits assumed, looked up): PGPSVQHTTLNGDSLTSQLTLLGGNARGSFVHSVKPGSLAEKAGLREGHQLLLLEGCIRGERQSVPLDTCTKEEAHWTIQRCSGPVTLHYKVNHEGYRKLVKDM

T9: MPP2, Q14168
T9 sequence (Q14168 180-250, limits assumed, looked up): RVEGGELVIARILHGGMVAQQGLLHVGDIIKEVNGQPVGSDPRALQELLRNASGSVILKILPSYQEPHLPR


Columns and labels:
Assay in all cases: holdup assay
Design in all cases: key: below the threshold = too weak to quantify, mostly under pKd 3.1 to 4
Conditions in all cases: plain residues with an end cap or a label only (N-terminal biotin on a linker: ado-ado)
LIMK2, P53671 = biological target: LIMK2, P53671
SCRIB_1, Q14160 = biological target: SCRIB_1, Q14160
LNX2_3, Q8N448 = biological target: T1, LNX2_3, Q8N448
NHERF4_1, Q86UT5-2 = biological target: NHERF4_1, Q86UT5-2
Inadl_8, Q8NI35 = biological target: Inadl_8, Q8NI35
FRMPD1, Q5SYB0 = biological target: T2, FRMPD1, Q5SYB0
GIPC2, Q8TF65 = biological target: GIPC2, Q8TF65
LDB3, O75112 = biological target: LDB3, O75112
RADIL, Q96JH8 = biological target: T3, RADIL, Q96JH8
Inadl_3, Q8NI35 = biological target: Inadl_3, Q8NI35
PDZRN3_1, Q9UPQ7 = biological target: T4, PDZRN3_1, Q9UPQ7
MAGI2_6, Q86UL8 = biological target: MAGI2_6, Q86UL8
DLG2_2, Q15700 = biological target: DLG2_2, Q15700
MAGI2_5, Q86UL8 = biological target: MAGI2_5, Q86UL8
FRMPD3, Q5JV73 = biological target: FRMPD3, Q5JV73
SNX27, Q96L92 = biological target: SNX27, Q96L92
LIN7A, O14910 = biological target: T5, LIN7A, O14910
PARD3B_1, Q8TEW8 = biological target: T6, PARD3B_1, Q8TEW8
GRASP, Q7Z6J2 = biological target: GRASP, Q7Z6J2
GRIP2_6, Q9C0E4 = biological target: GRIP2_6, Q9C0E4
ARHGEF12, Q9NZN5-2 = biological target: ARHGEF12, Q9NZN5-2
ARHGAP21, Q5T5U3 = biological target: T7, ARHGAP21, Q5T5U3
PTPN3, P26045 = biological target: PTPN3, P26045
MAGI1_1, Q96QZ7 = biological target: MAGI1_1, Q96QZ7
CARD11, Q9BXL7 = biological target: T8, CARD11, Q9BXL7
MPP2, Q14168 = biological target: T9, MPP2, Q14168
DLG4_1, P78352 = biological target: DLG4_1, P78352
MAST2, Q6P0Q8 = biological target: MAST2, Q6P0Q8
Inadl_10, Q8NI35 = biological target: Inadl_10, Q8NI35
Inadl_10, Q8NI35, sequence (Q8NI35 1673-1763): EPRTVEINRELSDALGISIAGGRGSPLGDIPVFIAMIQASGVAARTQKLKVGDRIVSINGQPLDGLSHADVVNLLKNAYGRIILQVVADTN

Inadl_8, Q8NI35, sequence (Q8NI35 1425-1530): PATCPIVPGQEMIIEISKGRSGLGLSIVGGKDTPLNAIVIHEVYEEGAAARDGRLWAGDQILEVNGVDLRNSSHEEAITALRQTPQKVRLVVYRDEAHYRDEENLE
MAGI1_1, Q96QZ7, sequence (Q96QZ7 1-106): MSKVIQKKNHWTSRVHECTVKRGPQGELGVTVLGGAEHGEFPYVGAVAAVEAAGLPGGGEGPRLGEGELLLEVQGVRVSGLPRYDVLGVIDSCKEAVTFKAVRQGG
GRIP2_6, Q9C0E4, sequence (Q9C0E4 648-740): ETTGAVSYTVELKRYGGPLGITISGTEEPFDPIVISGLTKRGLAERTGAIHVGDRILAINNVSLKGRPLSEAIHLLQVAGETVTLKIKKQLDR
NHERF4_1, Q86UT5-2, sequence (Q86UT5 other isoform, or with tags, fused parts or gaps): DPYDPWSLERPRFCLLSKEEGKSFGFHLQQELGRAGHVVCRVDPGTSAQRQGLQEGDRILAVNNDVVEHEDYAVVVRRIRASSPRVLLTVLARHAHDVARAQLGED
FRMPD3, Q5JV73, sequence (Q5JV73 12-100): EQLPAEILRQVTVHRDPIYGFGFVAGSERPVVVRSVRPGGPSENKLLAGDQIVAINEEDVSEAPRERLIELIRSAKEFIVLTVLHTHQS
DLG2_2, Q15700, sequence (Q15700 189-283): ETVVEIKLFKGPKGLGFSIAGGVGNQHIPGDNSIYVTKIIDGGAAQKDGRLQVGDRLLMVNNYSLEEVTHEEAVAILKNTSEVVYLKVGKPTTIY
MAGI2_5, Q86UL8, sequence (Q86UL8 915-1017): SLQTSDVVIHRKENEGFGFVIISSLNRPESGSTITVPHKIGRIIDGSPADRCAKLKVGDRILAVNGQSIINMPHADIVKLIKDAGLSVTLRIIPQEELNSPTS
DLG4_1, P78352, sequence (P78352 62-152): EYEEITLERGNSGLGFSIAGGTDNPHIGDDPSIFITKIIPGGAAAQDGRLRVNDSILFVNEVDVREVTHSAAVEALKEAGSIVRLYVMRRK
PTPN3, P26045, sequence (P26045 505-587): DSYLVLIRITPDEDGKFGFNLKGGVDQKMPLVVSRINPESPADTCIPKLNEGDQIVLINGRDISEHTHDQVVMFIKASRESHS
SCRIB_1, Q14160, sequence (Q14160 718-814): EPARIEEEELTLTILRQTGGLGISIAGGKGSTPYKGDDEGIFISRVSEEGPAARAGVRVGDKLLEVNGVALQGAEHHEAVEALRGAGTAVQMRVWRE
ARHGEF12, Q9NZN5-2, sequence (Q9NZN5 other isoform, or with tags, fused parts or gaps): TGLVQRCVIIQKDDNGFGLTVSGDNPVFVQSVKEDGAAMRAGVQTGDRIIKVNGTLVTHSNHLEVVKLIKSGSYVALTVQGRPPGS
GIPC2, Q8TF65, sequence (Q8TF65 112-203): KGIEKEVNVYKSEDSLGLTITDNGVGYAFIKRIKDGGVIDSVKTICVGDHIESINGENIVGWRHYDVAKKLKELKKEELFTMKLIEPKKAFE
Inadl_3, Q8NI35, sequence (Q8NI35 359-469): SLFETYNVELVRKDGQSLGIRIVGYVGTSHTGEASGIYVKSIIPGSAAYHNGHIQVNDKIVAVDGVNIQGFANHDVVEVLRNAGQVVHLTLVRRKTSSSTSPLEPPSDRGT
GRASP, Q7Z6J2, sequence (Q7Z6J2 96-193): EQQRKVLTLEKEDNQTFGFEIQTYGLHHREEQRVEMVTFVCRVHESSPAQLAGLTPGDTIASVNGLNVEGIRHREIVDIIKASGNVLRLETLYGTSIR
LIMK2, P53671, sequence (P53671 143-248): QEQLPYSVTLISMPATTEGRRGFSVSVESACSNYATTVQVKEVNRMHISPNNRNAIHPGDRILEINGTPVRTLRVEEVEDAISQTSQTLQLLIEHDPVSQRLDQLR
MAGI2_6, Q86UL8, sequence (Q86UL8 1141-1229): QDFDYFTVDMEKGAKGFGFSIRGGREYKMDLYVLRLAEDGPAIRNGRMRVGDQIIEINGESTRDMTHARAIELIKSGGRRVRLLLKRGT
LDB3, O75112, sequence (O75112 1-94): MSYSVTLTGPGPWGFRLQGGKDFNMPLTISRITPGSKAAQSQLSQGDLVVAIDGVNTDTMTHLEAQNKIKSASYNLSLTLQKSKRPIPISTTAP
MAST2, Q6P0Q8, sequence (Q6P0Q8 1099-1202): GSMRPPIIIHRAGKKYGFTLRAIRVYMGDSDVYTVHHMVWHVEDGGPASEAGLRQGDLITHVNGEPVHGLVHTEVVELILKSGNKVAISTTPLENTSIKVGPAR

Binder | pKd (LIMK2, P53671) | pKd (SCRIB_1, Q14160) | pKd (LNX2_3, Q8N448) | pKd (NHERF4_1, Q86UT5-2) | pKd (Inadl_8, Q8NI35) | pKd (FRMPD1, Q5SYB0) | pKd (GIPC2, Q8TF65) | pKd (LDB3, O75112) | pKd (RADIL, Q96JH8) | pKd (Inadl_3, Q8NI35) | pKd (PDZRN3_1, Q9UPQ7) | pKd (MAGI2_6, Q86UL8) | pKd (DLG2_2, Q15700) | pKd (MAGI2_5, Q86UL8) | pKd (FRMPD3, Q5JV73) | pKd (SNX27, Q96L92) | pKd (LIN7A, O14910) | pKd (PARD3B_1, Q8TEW8) | pKd (GRASP, Q7Z6J2) | pKd (GRIP2_6, Q9C0E4) | also measured
GTGYDRKDYV [CLDN3, O15551] | below the threshold | below the threshold | below the threshold | 3.66 | 4.13 | below the threshold | below the threshold | below the threshold | 4.12 | below the threshold | below the threshold | 3.52 | below the threshold | below the threshold | below the threshold | 3.68 | below the threshold | 3.51 | below the threshold | below the threshold | pKd (ARHGEF12, Q9NZN5-2): below the threshold; pKd (ARHGAP21, Q5T5U3): 3.83; pKd (PTPN3, P26045): 4.04; pKd (MAGI1_1, Q96QZ7): below the threshold; pKd (CARD11, Q9BXL7): below the threshold; pKd (MPP2, Q14168): below the threshold; pKd (DLG4_1, P78352): below the threshold; pKd (MAST2, Q6P0Q8): below the threshold; pKd (Inadl_10, Q8NI35): below the threshold
MHIQEKGFHV [EPHA6, Q9UF33] | below the threshold | below the threshold | below the threshold | below the threshold | below the threshold | below the threshold | below the threshold | below the threshold | 3.98 | below the threshold | below the threshold | below the threshold | below the threshold | below the threshold | below the threshold | below the threshold | below the threshold | 4.89 | below the threshold | 3.59 | pKd (ARHGEF12, Q9NZN5-2): below the threshold; pKd (ARHGAP21, Q5T5U3): below the threshold; pKd (PTPN3, P26045): below the threshold; pKd (MAGI1_1, Q96QZ7): below the threshold; pKd (CARD11, Q9BXL7): below the threshold; pKd (MPP2, Q14168): below the threshold; pKd (DLG4_1, P78352): below the threshold; pKd (MAST2, Q6P0Q8): below the threshold; pKd (Inadl_10, Q8NI35): below the threshold
RDPPAEWTRV [PTPN18, Q99952] | below the threshold | 4.1 | below the threshold | 3.62 | 4.2 | below the threshold | below the threshold | below the threshold | 4 | below the threshold | 3.55 | 4.09 | 4.01 | 4.72 | below the threshold | 4.55 | 3.58 | 4.03 | 4.66 | below the threshold | pKd (ARHGEF12, Q9NZN5-2): 3.88; pKd (ARHGAP21, Q5T5U3): 3.95; pKd (PTPN3, P26045): below the threshold; pKd (MAGI1_1, Q96QZ7): below the threshold; pKd (CARD11, Q9BXL7): below the threshold; pKd (MPP2, Q14168): below the threshold; pKd (DLG4_1, P78352): 4.07; pKd (MAST2, Q6P0Q8): 5.62; pKd (Inadl_10, Q8NI35): 3.61
VLYPREGTEV [FOXI1, Q12951] | below the threshold | 3.99 | below the threshold | 3.71 | 3.82 | below the threshold | 3.49 | below the threshold | 3.74 | 3.72 | 4.46 | 4.46 | 4.45 | 4.09 | below the threshold | 4.31 | below the threshold | below the threshold | 4.31 | below the threshold | pKd (ARHGEF12, Q9NZN5-2): 4.08; pKd (ARHGAP21, Q5T5U3): 4; pKd (PTPN3, P26045): 4.76; pKd (MAGI1_1, Q96QZ7): below the threshold; pKd (CARD11, Q9BXL7): below the threshold; pKd (MPP2, Q14168): below the threshold; pKd (DLG4_1, P78352): 4.48; pKd (MAST2, Q6P0Q8): 5.27; pKd (Inadl_10, Q8NI35): below the threshold
